According to paper PMC6385203, “Mutations in the palm domain disrupt modulation of acid-sensing ion channel 1a currents by neuropeptides” (Scientific Reports, 2019):
Positions count from the first letter of the chain named. Ends that are not written are not given here.

Key:
[1] = biological target: T1, human ASIC1a N416C (human) (UniProt P78348)
T1 sequence: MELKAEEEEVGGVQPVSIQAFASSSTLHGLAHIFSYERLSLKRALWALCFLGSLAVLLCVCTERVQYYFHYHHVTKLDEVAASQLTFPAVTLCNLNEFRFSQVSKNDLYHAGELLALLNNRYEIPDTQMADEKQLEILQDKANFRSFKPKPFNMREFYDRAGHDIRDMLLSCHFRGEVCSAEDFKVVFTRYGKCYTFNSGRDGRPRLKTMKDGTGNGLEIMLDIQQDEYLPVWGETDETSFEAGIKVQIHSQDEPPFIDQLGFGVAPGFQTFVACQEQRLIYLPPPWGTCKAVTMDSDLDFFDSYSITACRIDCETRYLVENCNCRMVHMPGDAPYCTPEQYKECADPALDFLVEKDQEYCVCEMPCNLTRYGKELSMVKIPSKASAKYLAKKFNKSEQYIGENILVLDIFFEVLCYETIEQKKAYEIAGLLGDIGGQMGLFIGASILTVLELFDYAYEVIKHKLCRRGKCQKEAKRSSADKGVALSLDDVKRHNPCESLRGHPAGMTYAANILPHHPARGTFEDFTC

[2] = biological target: T2, human acid-sensing ion channel 1a, wild type (human) (UniProt P78348)
T2 sequence: T1 sequence with C416N

[3] = biological target: T3, human ASIC1a F302A (human) (UniProt P78348)
T3 sequence: T1 sequence with F302A, C416N

[4] = biological target: T2, human acid-sensing ion channel 1a, wild type (human); remark: listed apart in the source

EC50 of FRRFa for the I (sust)/I (peak) ratio increase at pH5, two-electrode voltage-clamp [1]: 6 μM
koff from the time course of disappearance of the FRRFa-induced sustained current after washout of 50 μM FRRFa [1]: 0.027 s⁻¹
koff from the time course of disappearance of the FRRFa-induced sustained current, WT in the direct comparison with N416C [2]: 0.029
EC50 of the FRRFa-mediated sustained current induction, two-electrode voltage-clamp [3]: 11 µM
EC50 of the induction of a sustained current (I (sust)/I (peak) at pH5) by FRRFa, two-electrode voltage-clamp, Xenopus oocytes [4]: 37 μM
association rate constant kon from the time course of appearance of the sustained current fraction with 50 μM FRRFa pre-applied at pH7.4, two-electrode voltage-clamp [4]: 162 s^−1 M^−1
rate of disappearance of the sustained current after a 50-s incubation with 50 μM FRRFa (rate of unbinding), two-electrode voltage-clamp [4]: 0.025 s⁻¹
B1: FRRFa (Phe-Arg-Arg-Phe-amide) (peptide)
peptide: FRRF-NH2
